Data taken from US7056731 (MAYO FOUNDATION FOR MEDICAL EDUCATION AND RESEARCH, dated 2006).

B1: wild type SULT2A1 polypeptide (reference human SULT2A1) (enzyme)
chain: MSDDFLWFEGIAFPTMGFRSETLRKVRDEFVIRDEDVIILTYPKSGTNWLAEILCLMHSKGDAKWIQSVPIWERSPWVESEIGYTALSESESPRLFSSHLPIQLFPKSFFSSKAKVIYLMRNPRDVLVSGYFFWKNMKFIKKPKSWEEYFEWFCQGTVLYGSWFDHIHGWMPMREEKNFLLLSYEELKQDTGRTIEKICQFLGKTLEPEELNLILKNSSFQSMKENKMSNYSLLSVDYVVDKAQLLRKGVSGDWKNHFTVAQAEDFDKLFQEKMADLPRELFPWE
notes: Recombinant protein expressed in COS-1 cells from pCR3.1 and used as an unpurified high speed supernatant cytosol preparation; The pair written here is its self-association into the homodimer; also called WT; WT enzyme
B2: SULT2A1 Ala261Thr allozyme (enzyme)
chain: MSDDFLWFEGIAFPTMGFRSETLRKVRDEFVIRDEDVIILTYPKSGTNWLAEILCLMHSKGDAKWIQSVPIWERSPWVESEIGYTALSESESPRLFSSHLPIQLFPKSFFSSKAKVIYLMRNPRDVLVSGYFFWKNMKFIKKPKSWEEYFEWFCQGTVLYGSWFDHIHGWMPMREEKNFLLLSYEELKQDTGRTIEKICQFLGKTLEPEELNLILKNSSFQSMKENKMSNYSLLSVDYVVDKAQLLRKGVSGDWKNHFTVTQAEDFDKLFQEKMADLPRELFPWE
notes: Recombinant variant made by site directed mutagenesis and expressed in COS-1 cells from pCR3.1; It was used as an unpurified cytosol preparation; also called codon Thr261 variant allozyme

Target: the molecule itself
Experiment: gel filtration chromatography through Sephadex G-100 (self-association / homodimerization)
Method: Gel Filtration Chromatography: Gel filtration chromatography of recombinant human SULT2A1 was performed at 4° C. with a 2×25 cm column of Sephadex G-100 superfine. The mobile phase was 5 mM K phosphate buffer, pH 7.5, and 3 ml fractions were collected at a flow rate of approximately 1.8 mL per h. The fractions were assayed for SULT2A1 activity. Standards for column calibration were eluted separately and included Dextran Blue 2000, bovine serum albumin (67 kDa), ovalbumin (45 kDa), chymotrypsinogen A ([…]) and ribonuclease A (13.7 kDa).
The Ala261 Thr polymorphism is located within the dimerization motif at the C-terminus of the conserved 'Region IV' SULT signature sequence, and may alter the formation of the SULT2A1 homodimer. To test that hypothesis, recombinant WT and codon Thr261 variant allozyme preparations were subjected to gel filtration chromatography through Sephadex G-100.

| Protein | binding result |
| --- | --- |
| B1 | binds |
| B2 | no binding |
